# Test results as given in the DeepSol protein solubility set.
# Test: soluble on expression in E. coli; label from the status in PepcDB or PDB records
row,Sequence,soluble on expression in E. coli
1,MSETATWQPSASIPNLLKRAAIMAEIRRFFADRGVLEVETPCMSQATVTDIHLFPFETRFVGPGHSQGINLYLMTSPEYHMKRLLAAGCGPVFQLCRSFRNEEMGRHHNPEFTMLEWYRPHYDMYRLMNEVDDLLQQVLDCQPAESLSYQQAFQRHLEIDPLSADKTQLREAAAKLDLSNIADTEEDRDTLLQLLFTMGVEPHIGKEKPTFIYHFPASQASLAQISTEDHRVAERFEVYYKGIELANGFHELTDAREQQQRFEQDNRKRAARGLPQQPIDQNLLDALAAGLPDCSGVALGVDRLVMLALGAESLADVIAFTVDRA,not soluble
2,MANLATVERYVSAAAQRGADMVVFPEATMQGFGTGRLDRVAERIDGPFATRICQLARELNIVIVVGMFSPADTHDGKQRINNVALIAHPDSVREYRKIHTYDAFGFKESDTVRPGNQLVTFPVGDVTCGIAVCYDVRFPQQFIDLARLGAEVIVLPASWADGEGKLEQWRTLTAARALDSTSYIVACDQAVAEDERAPGAPTGVGHSAVVTPDGRRIAEAGTGEELFMVNVNRDLVRRTREAIPVLADAGYNQNGE,not soluble
3,MGSSHHHHHHSSGLVPRGSHMYETYHSGWIECITGSMFSGKSEELIRRLRRGIYAKQKVVVFKPAIDDRYHKEKVVSHNGNAIEAINISKASEIMTHDLTNVDVIGIDEVQFFDDEIVSIVEKLSADGHRVIVAGLDMDFRGEPFEPMPKLMAVSEQVTKLQAVCAVCGSSSSRTQRLINGKPAKIDDPIILVGANESYEPRCRAHHIVAPSDNNKEEL,soluble
4,LGGNANAGLEVLKDATAQAIADAKALLAAGKVSVKIQEPCDEILFSRAKVWNGEKWACVTIVGGHTNIVHIETHNGVVFTQQACVTEGEQESPLTVLSRTTLAEILKFVNEVPFAAIRFILDSAKLNCALSQEGLSGNWGLHIGATLEKQCARGLLAKDLSSSIVIRTSAASDARMGGATLPAMSNSGSGNQGITATMPVVVVAEHFGADDERLARALMLSHLSAIYIHNQLPR,not soluble
5,KKVVFFGVGAVGATFAEQFFNSKYDFKILCDNERKKRYLEEGFIINGKRYDFDYVTKDEYKQEADFIIIGLKYNNLKENIKELDGLVGKNTVIMSLLNGVDSEEIIGERFGIEKMVYSYVTNIDAKKINNNIIHTTNGIIVFGNKDNSEDRKTNIITEVFDDVNIEYTLSKDIQRDMWWKYMVNI,not soluble
6,SNAYRGPEAFLKLPKDLKDREALQDIMQDIGNSDDILAAVVLSATPGAVEAFRKNGETIRITGDGLKAAHRFLSNDPKIGEKRIRPGALIRVKKTEKGSWQIVQLP,soluble
7,MQDTIFLKGMRFYGYHGALSAENEIGQIFKVDVTLKVDLSEAGRTDNVIDTVHYGEVFEEVKSIMEGKAVNLLEHLAERIANRINSQYNRVMETKVRITKENPPIPGHYDGVGIEIVRENK,soluble
8,MRTIYVIGIGTGSPEFLTLQAISGLRHAQAIVALDKGEQKSDLLALRQKIVDTHAPGTPIYAVTDPERDRNPDNYEEEVRRWHAERAHLLASTIRERTPDDGAVAFLVWGDPSLYDSTLRIIEHMRNLEDLHADVKVIPGITAVQVLTAEHGILINRIGEAIHITTGRNLPETSAKDRRNCVVMLDGKTAWQDVATEHTYMWWGAFLGTEQQVLRKGYVHEIGAQVAELKQQLRTEHGWIMDTYLLRELD,soluble
9,GAVGLTIRSNITYSKNEIVDRDEENNYYWYKMQKGHRVNQARGLISLGLFKDYDDIRNSPVQDFDGYKVMPGDIKYKDVNGDGKIDGNDQVAIGATTKPNLIYGFGIAANWKGLDVNLHFQGAGKSTYFIDGSTVHMFKLGDGWGNVLSEMANSNRWISADISGDPATENPNAEYPRLSYGPNSNNYQQSTYWLRNGSYLRLKTVEVGYTLPTQLVNKVHFNTVRIFFVGTNLLTWSAFKLWDPEMGSTDGKRYPLSKNLSLGISVNL,not soluble
10,MAHHHHHHMPTFSDIMAARKALDGYVYETPIIESNALHGKTRHESVLLKCENLQRTGSYHVRGMTYRVIRAKEEDLGINNFVTHSSGNGGAALACAASNFQSTAHVVVPEDTNALITRSIRLYHGNFYYCKPDLKSRVEMEARLHSEFNKVAGKKRNQCMLVNPYSDEAIIAGHGTTGIEIMLQTDCSVDCVVIPVGGGALLAGAAIAVKGMKPHVGVFAAELAVPPDHYTVFKRGEVIEARKLKGDEKRPKGNKHGIRTELTDLANSYIDRYVDGVVHVSKEEMCYAFRYVYERCKLVVDTNAAIAVAAVLACPQELSNYRRICIVLSGGNVDLNDVPKIATARL,soluble
11,YKIDFYRNFLVPLKVGKIKKIILDLRGNGGGMVLDARTFTDRFITKDAIFGYQRFKEDNNPFSYTPWIPCMTKTTGIGIKKEIPIVILLDNNSASMSEISTLMLKSQGKHVTVVGGYSAGATAGLGDSDQFNGGIRGKVSDYLEFYMPLLAMQDATHTVIEGIGIKPDLLVDPLTEDEVREMALSPFTHIDRTLKQAIEVLSNN,not soluble
12,MSTRFRLSLALLTTLVLSACDDAPRFTHAEPGEALSGGSATVRKSDQNAFSMPSANLSPVRRLDFSVGNSFFRSPWVIAPSTTTARDGLGPLFNTNACQNCHIKDGRGHPPEAGDSNAVSMLVRLSIPDDPAYADLIRRNGVLPEPTYGGQLQDMSNPGVAPEGKVRVEYDALTVNFRDGTAVELRQPTLRITQLGYGPMHPETHISARIAPPMIGLGLLEAIADDAILANADPDDKNADGISGRPNWVWDDVQQKVVMGRFGWKAGQPNLNQQNVHAFSGDMGLTTSLRRVDDCTPAQTDCLVAPNGNGPDGEPEVSDNILRLVEFYTRNLGVPARRKVADPQVLAGKNLFFEAGCQQCHTPSFKTRSDAAQPELANQDIRPYSDLLLHDMGEGLADNRTEFQATGREWRTPPLWGLGLTETVSGHTQLLHDGRARNMLEAILWHGGEAQAAQRRVLAFDAEQREALLAFLNSL,not soluble
13,SEDHQHVPIDIQTSKLLDWLVDRRHCSLKWQSLVLTIREKINAAIQDMPESEEIAQLLSGSYIHYFHCLRILDLLKGTEASTKNIFGRYSSQRMKDWQEIIALYEKDNTYLVELSSLLVRNVNYEIPSLKKQIAKCQQLQQEYSRKEEECQAGAAEMREQFYHSCKQYGITGENVRGELLALVKDLPSQLAEIGAAAQQSLGEAIDVYQASVGFVCESPTEQVLPMLRFVQKRGNSTVYEWRTGTEPSVVERPHLEELPEQVAEDAIDWGDFGVEAVSEGTDSGISAEAAGIDWGIFPESDSKDPGGDGIDWGDDAVALQITVLEAGTQAPEGVARGPDALTLLEYTETRNQFLDELMELEIFLAQRAVELSEEADVLSVSQFQLAPAILQGQTKEKMVTMVSVLEDLIGKLTSLQLQHLFMILASPRYVDRVTEFLQQKLKQSQLLALKKELMVQKQQEALEEQAALEPKLDLLLEKTKELQKLIEADISKRYSGRPVNLMGTSL,soluble
14,MANKKNKVKFNICNVHYAPITVADEGKVSFGTPVAMPGAVSISMDPTGEPESFYADGIEYYVINNNQGYDGDLELAMIPETFRTDILKEEADSNNVLVENANSETGSFALLFEFDGDIRKIRHVLYNCSASRPTIESKTNEEDKEVQTETLTIKARPMADGYVKAKTGDSTTDTVYNNWYKSVYLPNSLEHHHHHH,soluble
15,MKYIVLLGDGMSDEPMQELGGKTPLQAARTPHMDAMARRGRIGLARTVPEGYPPGSDVANLSVFGYDPRACYTGRSPLEAASMGVELGSADVAFRVNLVNLAPTRGTLVMNDYSAGHISTAEGRELIEAIQGVMGTDEFQFYPGVGYRHLMVWRNGKCGMTVVPPHDISGQSILEHLPKGEGAERLIELMNSSQLVLNNHPQYRRRLEEGKVPANSIWLWGHGKAPRMASFHEKFGLTGAVISAVDLVRGIGVCAGLDVIKVEGATGYIDTNYEGKVTAALEALEAHDYVYLHVEAPDEAGHGGNLEHKLKAIEDFDARVVGPIMAGMEKFGSYRILCTPDHPTPLRLKTHTDAPVPFVLFSGETSENAGVAGYDEESARSAGLVVEDGFRLMEMMLDRLEHHHHHH,soluble
16,MCMYGGIYVNNGYSPMSSNQQNVSVEHDIIMRGRRVIDITGVKQVESFDSEEFLLETVMGFLTIRGQNLQMKNLDVEKGVVSIKGKVHEMLYIDENQGEKTKGFFSKLFKLEHHHHHH,soluble
17,MSLGNPTSINPGGSSTTTGMAFNEENGFQVSDYAGQPEGPNLVYIEGGRTVLGSFEEDLMKNGDNVERTVTVASFYMDETEIANIHWLEYLFYVQRDSSQEFYESALPDTTVWASELAYNDPYVDHYFRYPGFRYFPVVGVNWIQANDYCIWRTTVVNNQLAQNAGIDVPEGGGRIPLESGVVLPNYRLPSEAEWEYAAQALIGNQWLDENQTHKRLYPWDGHALRNPYGKQMGMFLANFKRGRGDYAGIAGKLNDGAMITTYIYEFPPNDFGLYCMAGNVNEWVYDVYRPLSFQTFDDLNPLRRNGFLDEEKGYDKAGFQSLVDDHVRVYKGGSWKDVAYWMSPGTRRYLAEDSCTATIGFRCAMIQAGTEGHHHHHH,soluble
18,MDEEASRTARESLELVFRMSNILDTGLDRHTLSVLIALCDLGVNPEALATVVKELRRESIPDSVTTTPSIH,soluble
19,MGGWMSCAPPIYTPHTNSWTESGWDRTSWWRWSAQRWSGWSFKIVRANKALRVMAKTKMPLVLIPPSPNKPYSKLAINQELHLTPHKKTSPATSSSLKPRPGPRGYLNARLSWRCPTLSRKVRVPTIKVPMVRAPSTKPSKTSSSNNPWPLTPRMRG,soluble
20,MNEKKLVEALKRKEDWAYEVLYREFAPKIGSIAKSFLNTDDVDDVVQDVFLRIFKGIKKFRGDSKLSTWIYRIAVNVCKDYLQKYKKRNEFLTDFQEKDNEEEIYIQPEAKENVLDEVLRSITAERVQKALEKLSPEDRLLIKLRDIDGLSYEEIASVLQKPVGTVKSRLHYARKRLGNLLKEGETVER,not soluble
21,MGSDKIHHHHHHMSYRLNIENLREFMSETSDSCEHLVFPQKRGIYRAQKEWIASGITLFKCTLRAEDEVVIEQKESAFFGGAFIHVVLEGGVSFETSQPKGSFEYRRGYTTAMEALHPSGITRVARGVSVHSIGIHIHEDFLRSREIEWKKIAKEPRLLPSNPKVEWIAKSLYQGRGGAQSDADRLRVESQILEILSCELQREETRGGMERVKLSGYDLEALHKARVILEQNLKNPPSLIELSRAIHLNEFKLKFGFKRLFGVAPYEMLFLFRMQRARGLLEEGIFSVGEVAKEVGYAQQSSFSAAFFRHFGVLPKEVAKSWKD,not soluble
22,SQLADAEKINVPFPSSQTVVRLGQIGIDHHNQNYFPLMVGNYILGGGTLVSRLGTEVREKRGLTYGIDSQFVPMLGEGPFIISLSTKNSEARNALHITQDTLIKFIKNGPNQEELASAKQYLTGSFPLSLGSNTNIANLLLRMAFYHLPDNYLDTYVAKINAVTDAEIKQAFQQQVNPEKLLLVTVGQ,not soluble
23,MGKMAAAVGSVATLATEPGEDAFRKLFRFYRQSRPGTADLEGVIDFSAAHAARGKGPGAQKVIKSQLNVSSVSEQNAYRAGLQPVSKWQAYGLKGYPGFIFIPNPFLPGYQWHWVKQCLKLYSQKPNVCNLDKHMSKEETQDLWEQSKEFLRYKEATKRRPRSLLEKLRWVTVGYHYNWDSKKYSADHYTPFPSDLGFLSEQVAAACGFEDFRAEAGILNYYRLDSTLGIHVDRSELDHSKPLLSFSFGQSAIFLLGGLQRDEAPTAMFMHSGDIMIMSGFSRLLNHAVPRVLPNPEGEGLPHCLEAPLPAVLPRDSMVEPCSMEDWQVCASYLKTARVNMTVRQVLATDQNFPLEPIEDEKRDISTEGFCHLDDQNSEVKRARINPHS,not soluble
24,MAHHHHHHMHTLVNFYTKGSDPVHKATIMPRGMSLGVTWKIPISDKYSQKIRDVQSEIDILMGGLVSEEIIFGKNNVTTGCSSDLQRATHIAQSLVMNYGVGINEENISMFLQDKKNISEEMKIKIDKSIQRILLDSYNRAKKVLNQHIDELHRVASALVEYETLTSDEIKLAMQGKHDQIRKNRELKQKEFNLKDSRIS,soluble
